B1: Hairpin Ribozyme (parent)
chain: GUCCUCUUUCACGUGCGCGUGAAAGAGAGAAGUGAACCAGAGAAACACACGUUGUGGUAUAUUACCUGGUA

Variants of B1 are the subject of the data set. As to the kind of experiment: self-cleavage, relative activity (ratio to wild type); higher = more cleavage; co-transcriptional.
GUCCUCUUUCACGUGCGCGCGAAAGAGAGAAGUGAACCAGAGAAACACACGUUUUGGUAUAUUACCUGGUA: the self-cleavage is 0.386.
As for GUCCUCUUUCACGUGCGCGCGAAAGAGAGAAGUGAACCAGAGAAACACGCGUUGUGGUAUAUUACCUGGUA, the self-cleavage came to 0.524.
On to GUCCUCUUUCACGUGCGCGCGAAAGAGAGAAGUGAACCAGAGAAACACACGUUGUGGUAUAUUACCUAGUA, for which the self-cleavage came to 0.251.
For GUCCUCUUUCACGUGCGCGGGAAAGAGAGAAGUGAACCAGAGAAACAUACGUUGUGGUAUAUUACCUGGUA, the self-cleavage stood at 0.228.
As for GUCCUCUUUCACGUGCGCGGGAAAGAGAGAAGUGAAACAGAGAAACACACGUUGUGGUAUAUUACCUGGUA, the self-cleavage was found to be 0.186.
Consider GUCCUCUUUCACGUGCGCGGGAAAGAGAGAAGUGAACGAGAGAAACACACGUUGUGGUAUAUUACCUGGUA, for which the self-cleavage turned out to be 0.119.
Next, GUCCUCUUUCACGUGCGCGCGAAAGAGAGAAGUAAACCAGAGAAACACACGUUGUGGUAUAUUACCUGGUA: 1.15; GUCCUCUUUCACGUGCGCGCGAAAGAGAGAAGUUAACCAGAGAAACACACGUUGUGGUAUAUUACCUGGUA: 1.32; GUCCUCUUUCACGUGCGCGGGAAAGAGAGAAGUGUACCAGAGAAACACACGUUGUGGUAUAUUACCUGGUA: 0.581.
For the variant GUCCUCUUUCACGUGCGCGGGAAAGAGAGAAGUGGACCAGAGAAACACACGUUGUGGUAUAUUACCUGGUA, the self-cleavage was 0.559.
Take GUCCUCUUUCACGUGCGCGGGAAAGAGAGAAGUGAACCAGAGAAACACACGUUGUGGUAUAUUACCUGGUA: the self-cleavage amounted to 0.879.
On to GUCCUCUUUCACGUGCGCGGGAAAGAGAGAAGUGAACCAGAGAAACACACGUUGUGGUUUAUUACCUGGUA, for which the self-cleavage was 0.123.
Consider GUCCUCUUUCACGUGCGCGCGAAAGAGAGAAGUGAACCAGAGAAACACACGUUGUGGUGUAUUACCUGGUA, for which the self-cleavage is 0.149.
For GUCCUCUUUCACGUGCGCGCGAAAGAGAGAAGUGAACCAGAGAAACACACGUUGUGGUUUAUUACCUGGUA, the self-cleavage is 0.157.
Turning to GUCCUCUUUCACGUGCGCGCGAAAGAGAGAAGAGAACCAGAGAAACACACGUUGUGGUAUAUUACCUGGUA, the self-cleavage is 0.0957.
In the case of GUCCUCUUUCACGUGCGCGCGAAAGAGAGAAGGGAACCAGAGAAACACACGUUGUGGUAUAUUACCUGGUA it was 0.0535; in that of GUCCUCUUUCACGUGCGCGGGAAAGAGAGAAGUGAACCUGAGAAACACACGUUGUGGUAUAUUACCUGGUA, 0.311; in that of GUCCUCUUUCACGUGCGCGGGACAGAGAGAAGUGAACCAGAGAAACACACGUUGUGGUAUAUUACCUGGUA, 0.83.
Regarding GUCCUCUUUCACGUGCGCGCGAAAGAGAGAAGUGAACCAGAGAAACACACGUUGUGGUAUAUUACCUGGCA, the self-cleavage came out at 0.945.
As to GUCCUCUUUCACGUGCGCGCGAAAGAGAGAAGUGAACCAGAGAAACACACGUUGUGGUAUAUUACCUGGAA, the self-cleavage was 1.08.
With GUCCUCUUUCACGUGCGCGCGAAACAGAGAAGUGAACCAGAGAAACACACGUUGUGGUAUAUUACCUGGUA, the self-cleavage was found to be 0.513.
Consider GUCCUCUUUCACGUGCGCGCGAAAUAGAGAAGUGAACCAGAGAAACACACGUUGUGGUAUAUUACCUGGUA, for which the self-cleavage was found to be 0.576.
Next, GUCCUCUUUCACGUGCGCGGGAAAGAGAGAAGUGAACCAGAGAACCACACGUUGUGGUAUAUUACCUGGUA: 0.16; GUCCUCUUUCACGUGCGCGCGAAAGAGAGAAGUGAACCAGAGAAACACACGUUGUGGUAUAUUACCAGGUA: 0.213; GUCCUCUUUCACGUGCGCGCGAAAGAGAGAAGUGAACCAGAGAAACACACGUUGUGGUAUAUGACCUGGUA: 0.169.
Turning to GUCCUCUUUCACGUGCGCGCGAAAGAGAGAAGUGAACCAGAGAAACACACGUUGUGGUAUAUAACCUGGUA, the self-cleavage is 0.116.
Turning to GUCCUCUUUCACGUGCGCGCGAAAGAGAGAAGUGAACCAGAGAAACACAAGUUGUGGUAUAUUACCUGGUA, the self-cleavage was 0.206.
For the variant GUCCUCUUUCACGUGCGCGGGAAAGAGAGAAGUGAACCAGAGAAACACGCGUUGUGGUAUAUUACCUGGUA, the self-cleavage amounted to 0.364.
For GUCCUCUUUCACGUGCGCGGGAAAGAGAGAAGUGAACCAGAGAAACACCCGUUGUGGUAUAUUACCUGGUA, the self-cleavage is 0.172.
Consider GUCCUCUUUCACGUGCGCGGGAAAGAGAGAAGUGAGCCAGAGAAACACACGUUGUGGUAUAUUACCUGGUA, for which the self-cleavage was 0.569.
Take GUCCUCUUUCACGUGCGCGCGAAAGAGAGAAAUGAACCAGAGAAACACACGUUGUGGUAUAUUACCUGGUA: the self-cleavage is 0.274.
With GUCCUCUUUCACGUGCGCGCGAAAGAGAAAAGUGAACCAGAGAAACACACGUUGUGGUAUAUUACCUGGUA, the self-cleavage was 0.181.
As to GUCCUCUUUCACGUGCGCGCGAAAGAGAGAAGUGAACCAGAGAAACCCACGUUGUGGUAUAUUACCUGGUA, the self-cleavage is 0.358.
In the case of GUCCUCUUUCACGUGCGCGCGAAAGAGAGAAGUGAACCAGAGAAACGCACGUUGUGGUAUAUUACCUGGUA it was 0.159; in that of GUCCUCUUUCACGUGCGCGGGAAAGAGAGAAGUGAACCAGGGAAACACACGUUGUGGUAUAUUACCUGGUA, 0.687; in that of GUCCUCUUUCACGUGCGCGCGAAAGAGAGAAGUGAACCAGAGAAACACACGUUGUGGUAUUUUACCUGGUA, 0.21.
Take GUCCUCUUUCACGUGCGCGCGAAAGAGAGAAGUGAACCAGAGAAACACACGUUGUGGUAGAUUACCUGGUA: the self-cleavage amounted to 0.534.
GUCCUCUUUCACGUGCGCGCGAAAGAGAGAAGUGAACCAGCGAAACACACGUUGUGGUAUAUUACCUGGUA: the self-cleavage is 1.11.

The values are drawn from the RNAGym collection of RNA variant scans (doi:10.7554/elife.80360).
